Measurements taken from article PMC6213154, “Mapping the Contact Sites of the Escherichia coli Division-Initiating Proteins FtsZ and ZapA by BAMG Cross-Linking and Site-Directed Mutagenesis” (International Journal of Molecular Sciences, 2018).

B1: FtsZ (Filamenting temperature sensitive Z), Escherichia coli (natural protein, E. coli, UniProt P0A9A6 1-383, looked up)
chain: MFEPMELTNDAVIKVIGVGGGGGNAVEHMVRERIEGVEFFAVNTDAQALRKTAVGQTIQIGSGITKGLGAGANPEVGRNAADEDRDALRAALEGADMVFIAAGMGGGTGTGAAPVVAEVAKDLGILTVAVVTKPFNFEGKKRMAFAEQGITELSKHVDSLITIPNDKLLKVLGRGISLLDAFGAANDVLKGAVQGIAELITRPGLMNVDFADVRTVMSEMGYAMMGSGVASGEDRAEEAAEMAISSPLLEDIDLSGARGVLVNITAGFDLRLDEFETVGNTIRAFASDNATVVIGTSLDPDMNDELRVTVVATGIGMDKRPEITLVTNKQVQQPVMDRYQQHGMAPLTQEQKPVAKVVNDNAPQTAKEPDYLDIPAFLRKQAD
notes: FtsZ, Escherichia coli; tryptic peptides up to the C-terminal KQAD (residues 380-383) were identified; In the cross-linking experiments a 1:1 mixture of 14N- and 15N-labelled FtsZ was used (about 95% 15N); Polymerised with GTP into protofilaments; also called ^14N-FtsZ; ^15N-FtsZ; source: E. coli BL21(DE3) pRRE6, isolated as described [52]

Assays:
[1] = target: the molecule itself; test: cross-linking; BAMG, LC-MS/MS; bundling conditions: FtsZ (14N:15N 1:1) without ZapA, 10 mM CaCl2, 30 uM GTP, polymerization buffer pH 7.5, 30 °C
[2] = target: B1; test: cross-linking; BAMG (100-150 uM) added 30-60 s after GTP, 30 min at 30 °C; trypsin digest, enrichment on ARCO resin, SCX, LC-MS/MS; 3.4 uM FtsZ (14N:15N 1:1), 6.8 uM ZapA, 50 mM HEPES pH 7.5, 50 mM KCl, 5 mM MgCl2, 60 uM GTP; no Ca2+; conditions: both partners purified
[3] = target: the molecule itself; test: as above

| Binder | binding result [1] | binding result [2] | stoichiometry N [3] |
| --- | --- | --- | --- |
| B1 | binds | – | – |
| ZapA (Z associated protein A), Escherichia coli (natural protein, E. coli, ZapA, Escherichia coli; source: isolated using a His-tagged version, His-tag removed by proteolysis, as described [8]) MSAQPVDIQIFGRSLRVNCPPDQRDALNQAADDLNQRLQDLKERTRVTNTEQLVFIAALNISYELAQEKAKTRDYAASMEQRIRMLQQTIEQALLEQGRITEKTNQNFE | – | binds | 4 |
